Measured values: US20140100172A1 (MALLINCKRODT, published 2014)
Where two headings read alike, the source gives them in different places. Square brackets hold non-standard residues; d marks the D form. * marks the point of attachment. 2Nal = N[C@@H](Cc1ccc2ccccc2c1)C(=O)O; NMeR = CN[C@@H](CCCNC(=N)N)C(=O)O; Dap = NC[C@H](N)C(=O)O; nal = not defined here; 125I = [125I]*

B4: human chemokine receptor type 4 (CXCR4) (receptor, UniProt P61073 1-352, looked up)
chain: MEGISIYTSDNYTEEMGSGDYDSMKEPCFREENANFNKIFLPTIYSIIFLTGIVGNGLVILVMGYQKKLRSMTDKYRLHLSVADLLFVITLPFWAVDAVANWYFGNFLCKAVHVIYTVNLYSSVLILAFISLDRYLAIVHATNSQRPRKLLAEKVVYVGVWIPALLLTIPDFIFANVSEADDRYICDRFYPNDLWVVVFQFQHIMVGLILPGIVILSCYCIIISKLSHSKGHQKRKALKTTVILILAFFACWLPYYIGISIDSFILLEIIKQGCEFENTVHKWISITEALAFFHCCLNPILYAFLGAKFKTSAQHALTSVSRGSSLKILSKGKRGGHSSVSTESESSSFHSS
notes: whole, on cells; also called CXCR4 receptor; CXCR4 chemokine receptor

Key:
[1] = molecular target: B4; assay: competition with 125I-CPCR4 tracer on CXCR4-expressing cells
[2] = molecular target: B4; assay: as above; remark: listed apart in the source
[3] = molecular target: B4; assay: as above; remark: listed apart in the source
[4] = molecular target: B4; assay: radioligand binding on Jurkat and CMS5/CXCR4 cells
[5] = molecular target: B4; assay: saturation radioligand binding, Jurkat and CMS5/CXCR4 cells
[6] = molecular target: B4; assay: competition with 125I-CPCR4 tracer on CXCR4-expressing cells; remark: listed apart in the source
[7] = molecular target: T1, recombinant human SDF-1α (stromal cell-derived factor 1α) (human, UniProt P48061-2 22-89); assay: competitive radioligand binding on CXCR4-expressing cells
T1 construct: also called SFD-1α

B1: cyc[D-Tyr-(Me)Arg-Arg-Nal-Gly] (peptide)
peptide: cyclo([dY][NMeR]R[2Nal]G)
SMILES: CN1C(=O)[C@@H](Cc2ccc(O)cc2)NC(=O)CNC(=O)[C@H](Cc2ccc3ccccc3c2)NC(=O)[C@H](CCCNC(=N)N)NC(=O)[C@@H]1CCCNC(=N)N
notes: also called OD1
[1]
  IC50: 23 nM

B2: cyc[D-Tyr-Arg-Arg-nal-Ala-Gly] (peptide)
peptide: cyclo([dY]RR[nal]AG)
modifications: reading uncertain; also: printed as cyc[D-Tyr-Arg-Arg-nal-Ala-Gly]
notes: differs by nal against Nal; also called BL 40
[2]
  IC50: ~1000 nM

## cyclo([dY]R[NMeR][2Nal]G) (also called OD3) [cyc[D-Tyr-Arg-(Me)Arg-Nal-Gly]]
[1]
  IC50: 31 nM

## cyclo([dY]RR[2Nal][Dap]G) (not fully specified (residue 5); printed as cyc[D-Tyr-Arg-Arg-Nal-Dap(FP)-Gly], also called BL 58; BL58) [cyc[D-Tyr-Arg-Arg-Nal-Dap(FP)-Gly]]
[3]
  IC50: ~1000 nM

## cyclo([dY](125I)RR[2Nal]G) (also called radiolabeled CPCR4) [125I-CPCR4]
[4]
  Kd: 0.4 nM
[5]
  Kd: 0.3 to 0.4 nM

B3: cyc[D-Tyr-His-Arg-Nal-Gly] (peptide)
peptide: cyclo([dY]HR[2Nal]G)
SMILES: N=C(N)NCCC[C@@H]1NC(=O)[C@H](Cc2c[nH]cn2)NC(=O)[C@@H](Cc2ccc(O)cc2)NC(=O)CNC(=O)[C@H](Cc2ccc3ccccc3c2)NC1=O
[6]
  IC50: 30 nM

## B4
[7]
  binding result: binds
